The text below walks through data of PMC7566517, “Long-acting antibody ligand mimetics for HER4-selective agonism” (Scientific Reports, 2020).

Where only a bound is given, the exact number is not on record here.

T1: recombinant human HER4 ECD, biotinylated (human, UniProt Q15303 26-651, biotinylated (site not stated))
T1 construct: human epidermal growth factor receptor family member 4 (HER4, ErbB4), extracellular domain; Captured on streptavidin biosensors by its biotin; also called ErbB4; source: in-house purified recombinant
T1 sequence (looked up): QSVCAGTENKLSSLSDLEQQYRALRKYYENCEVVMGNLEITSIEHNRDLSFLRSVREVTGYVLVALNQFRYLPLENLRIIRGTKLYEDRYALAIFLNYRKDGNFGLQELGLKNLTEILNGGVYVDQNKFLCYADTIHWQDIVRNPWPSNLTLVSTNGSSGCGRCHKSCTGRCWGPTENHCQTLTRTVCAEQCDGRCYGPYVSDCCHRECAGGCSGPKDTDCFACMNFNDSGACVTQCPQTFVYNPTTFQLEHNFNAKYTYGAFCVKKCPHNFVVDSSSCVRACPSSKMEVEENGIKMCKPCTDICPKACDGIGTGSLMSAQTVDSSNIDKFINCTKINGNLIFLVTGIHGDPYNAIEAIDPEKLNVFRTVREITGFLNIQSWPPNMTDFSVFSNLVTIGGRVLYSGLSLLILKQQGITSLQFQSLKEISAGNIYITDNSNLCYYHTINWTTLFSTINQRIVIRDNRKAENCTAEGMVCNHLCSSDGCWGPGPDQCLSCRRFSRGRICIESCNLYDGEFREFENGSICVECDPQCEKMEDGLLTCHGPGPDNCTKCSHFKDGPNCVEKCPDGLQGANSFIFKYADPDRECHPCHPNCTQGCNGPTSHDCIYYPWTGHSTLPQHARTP

B1: NRG1 fused with human serum albumin (ligand, UniProt Q02297-6 177-236, looked up)
chain: SHLVKCAEKEKTFCVNGGECFMVKDLSNPSRYLCKCPNEFTGDRCQNYVMASFYKHLGIE
notes: neuregulin 1 (NRG1) fused with HSA, control protein; Control protein; also called NRG1-HSA
B2: NRG1-MFc fusion protein (NRG1 EGF domain fused with monomeric Fc) (Fc fusion, human)
chain: GTSHLVKCAEKEKTFCVNGGECFMVKDLSNPSRYLCKCPNEFTGDRCQNYVMASF
notes: neuregulin-1 beta (NRG1b) EGF domain, about 60 amino acids; numbers count on: the EGF domain (His2, Cys45); also called neuregulin-MFc; parental clone; source: HEK293FT, transient transfection, purified (protein A); not shown: monomeric Fc (MFc C4)
B3: ALM3 (antibody ligand mimetic 3) (antibody)
chain 1: not shown
chain 2: EIVLTQSPGTLSLSPGERATFSCRSSHSIRSRRVAWYQHKPGQAPRLVIHGVSNRASGISDRFSGSGSGTDFTLTITRVEPEDFALYYCQVYGASSYTFGQGTKLERKRTVAAPSVFIFPPSDEQLKSGTASVVCLLNNFYPREAKVQWKVDNALQSGNSQESVTEQDSKDSTYSLSSTLTLSKADYEKHKVYACEVTHQGLRSPVTKSFNRGEC
B4: ALM4 (antibody ligand mimetic 4) (antibody)
chain 1: not shown
chain 2: B3 chain 2

In this assay the target is T1, recombinant human HER4 ECD, biotinylated. Kind of assay: BLI; Octet 384; biotinylated HER4 or HER3 at 1 μg/mL captured on streptavidin biosensors; PBS pH 7.4, 3 mg/mL BSA, 0.05% Tween 20; serial dilutions of the variants; steady-state fit. Particulars: both partners purified. In general terms: In BLI a coated tip is dipped into the sample, and binding shifts an interference pattern.
A word on the Kd: it is the constant that tells how readily two partners part at equilibrium. With B1, the Kd was 460 nM.
In the case of B2 it was 640 nM; in that of B3, over 10000 nM.
With B4, the Kd worked out at 5600 nM.
